Results from the nanobody polyreactivity screen of Harvey et al. (2022).

assay: yeast display, Sf9 membrane polyspecificity reagent, FACS + sequencing; frameworks hold sequencing errors
Outline: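 Polyreactivity labels are assigned by the sorting gate from which each nanobody was recovered. The gates were low and high (top ~1%), set on anti-HA fluorescence for expression and streptavidin fluorescence for reagent binding. Before sorting, galactose-induced (36–48 hours) yeast display cells were stained for 1 hour at 4 °C with 10% biotinylated, detergent-solubilized Sf9 membrane reagent.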

Sequence	polyreactivity (PSR sort gate)
HVQLVESGGGLVQAGGSLRLSCAASGRTFTYNTMGVYRKEPGKERELVAAISSSGGSTYYADSVKGRFTISRDNAKNTVYLQMNSLKPEDTAVYYCAKRYFSSSRYYYWGQGTQVTVSS	high polyreactivity
QVQLVESGGGLVQAGGSLRLSCAASGSTFYYNAMGWYRQAPGKEREFVAAISSRGGSTYYADSVKGRFTISRDNAKTTVYLQMNSLKPEDTAVYYCAAKYRHRYDWGQGTQVTVSS	high polyreactivity
QVQLVESGGGLVQAGGSLRLSCAASGSIIHDNAMGWYRQAPGKERELVAAINRGGSTHYADSVKGRFTISRDNAKNTVYLQMNSLKPEDTAVYYCAADGIRPEVGYWGQGTQVTVSS	low polyreactivity
QVQLVESGGGLVQAGGSLRLSCAASGITFAYYAMGWSRQAPGKERELVAAIRWSGGDTYYADSVKGRFTISRDNAKNTVYLQMNSLKPEDTAVYYCAADTTWGYDYWGQGTQVTVSS	low polyreactivity
QVQLVDSGGGFVQAGGSLRLSCAASGFIFRSYAMRWYRTAPGKERELVAAITKSGGRTYYADSVKGRFTISRDNAKNTVYLQMNSLKPEDTAVYYCAADGAYGGYDYWGQGTLVTVSS	low polyreactivity
QVQLGESGGGLVQAGGSLRLSCAASGFTFDVNAMGWYRQATGKERELFAGITTSDGSTYYADSVKGRFTISRDNAKNTVYLQMNSLQPEDTAVYYCAAAITWYQLYQRSGGDYWGQGTQVTVSS	low polyreactivity
QVQLVESGGGLVQAGVSLRLSCAASGSIIWVYAMGWYRQAPGNERELVAAITSGVSTYYADSVKGRFTISRDNAKNTVYFQMNSLKPEETAVYYCAVVGGFRWIRMEYWGQGTQVTVSS	low polyreactivity
QVQLVESGGGLVQAGGSLRLSCAASGSIFSTNGMGWYRQAPGKERELVAAISTGGRTYYADSVKGRFTISRDNAKNTVYLQMNSLKPEDTAVYYCAKRFGYRSTQILDYWGQGTQVTVSS	low polyreactivity
QVQLVESGGGLVQAGGSLRLSCAASGSIFYINAMGWYRQAPGKERELVAAINRGGSTNYADSVKGRFTISRDNAKNTVYLQMYSLKPEDTAVYYCAAYIYKTYRYYYWGQGTQVTVSS	high polyreactivity
QVQLVESGGGLVQAGGSLRLSCAASGYIFRFNAMGWYRQAPGKERELVAVITSGARTYYADSVKGRFTISRDNAKNTVYLQMNSLKPEDTAVYYCNAGARRYLYDYWGQGTQVTVSS	low polyreactivity
QVQLVESGVGLVQAGGSLRLSCAASGLTYYGYVMGWYRQAPGKERELVAAISQSGGTTYYADSVNGRFTISRDNAKNTFYLHMNSLTPEDTAVYYCAADHFYILIFLYGKLTLDYWGQGTQVTVSS	high polyreactivity
QVQIVESGGGLVQAGGSLRLSCAASGTFSFYAMGWYRQAPGKERELVATIRSGGRTYYADSVKGRFTISRDNAKNTVYLQMNSLKPEDTAVYYCAKTGFLGLRQYGYWGQGTQVTVSS	high polyreactivity
QVQLVESGGGLVQAGGSLRLSCAASGIILYPYAMGWYRQAPGKERELVAAISWSGGSTYYADSVKGRFTISRDNAKNTVYLQMNSLKPEDTAVYYCNARYYGPSWNSYDYWGQGTQVTVSS	high polyreactivity
QVQLVESGGGLVQAGGSLRLSCAASGSILYYYTMGWYRQAPGKERELVAAINTSGGITYYADSVKGRFTISRDNAKNTVYLQMNSLKPEDTAVYYCAAEGPEIKYYYWGQGTQVTVSL	low polyreactivity
QVQLVESGGGLVQAGGSLRLSCAASGSTFPWNAMGWYRPAPGKERELVAAISSGGSTNYADSVKGRFTISRDNAKNTVYLQMNSLKPEDTAVYYCNAYYWSDSRGKYDYWGQGTQVTVSS	low polyreactivity
QVQLVESGGGLVQAGGSLRLSCAASGFTFNKYAMGWYRQAPGTERELVAAISSRGGSPYYADSVKGRFTISRDNAKNTVYLQMNSLKPEDTAVYYCAVYTIGYLAWYQKFDYWGQGTQVTVSS	high polyreactivity
QVQLVESVGGLVQAGGSLRLSCAASGRIFPVYAMGLYRQAPGKERELVAAISKRDGSTSYADSVKGRFTISRDNAKNTVYIQMNSLKPEDTAVYYCNARNHVQVLFRRDYWGQGTQVTVSS	low polyreactivity
QVQLVESGGGLVQAGGSLRLSCAASGRILYRYVMGWYRQAPGKERELVAGISWSGGSTYYADSVKGRFTISRDNAKNTVYLQMNSLNPEDTAVYYCNKYIGALGRWGYDYWGQGTQVTVSS	low polyreactivity
QVQLVESGGGLVQAGGSLRLSCAASGITFYEYAMGLYRKAPGKERELVAAISDRGGSTYYADSVKGRFTISRDNSKNTVYLQLNSLKPEDTAVYYCAGRNTPAQLDYWGQGTQVTVSS	low polyreactivity
QVQLVESGGGLVQAGGSLRLSCAASGFIFRGYAMGWYRQAPGKERELVAAINSGGSTNYADSVKGRFTISRDNAKNTVYLQMNSLKPEDTAVYYCAARVKTSYRYLRTYNYWGQGTQVTVSS	high polyreactivity
QVQLVESGGGLVQAGGSLRLSCAASGYTLSLNAMGWYRQAPGKERELVAVISWNGGRTRYADSVKGRFTISRDNAKNTVYLQMNSLKPEDTAVYYCNADIYARTYAGYYQWRPYDYWGQGTQVTVSS	high polyreactivity
QVQLVESWGGLVKAGGSLRLSCAASGRTIRGYTMGWNRQAPGKQRELVAAISQSGGRTHYADSVKGRFTISRDNAKNTVYLEMKSLKPEDTAVYYCAARGQRERSYPLYDYWGQGTQVTVSS	high polyreactivity

Sequence	polyreactivity (PSR sort gate)
QVQHVESGGGLVQSGGSLRLSCAASGSIFGKYSMGWYRQAPGKERELVAAISDSGSITYYADSVKGRLTISRDNAMYTFYLQMNSLKPEDTAVYYCAAEVNYYQRFKYEYWGQGTQVTVSS	high polyreactivity
QVQLVESGGGLVQAGGSLRLSCAASGRTFTRYAMGWYRQAPGKERELVAAISWSGGSTYYADSVKGRFTISRDNAKNSVYLQMNSLKPEDTAVYYCNAYYYYPEFNYWGLGTQVTVSS	high polyreactivity
QVQLEESGVGVVLAGGSRSLSCAASGRIFQYNAMGWNRQAPGKERELVAAISYRGGSTYYADSVKGRFTISRDNAKYTVYLQLNSLKPEDTAVYYCAVEYPVYYYVEYDYWGQGTQVTVSS	high polyreactivity
QVQLVESGVGLVQAGGSLRLSCAASGRIFTFNVMGWYRQAPGKERELVAAITFSGGSTYYADSVKGRFTISRDNAKNTVYLQMNRLKTEDTAVYFCAAKISLGDDYWGQGTQVTVSS	low polyreactivity
QVQLVESGGGLVQAGGSLRLICAASGRTFRYNAMGWYSQPHRKERELFAAINGGGSTYYADTVKGRFTISRDNAKNTVFLQMKSLKPEDTAVYYCAAANWRRNDYRYRFDYWGQGTQVTVSS	high polyreactivity
QVQLVESGGGLVQAGGSLRLSCAASGRTLADNAMGWYRQAPGKERELVAAITFSGDTTYYADSVKGRFTISRDNAKNTVYLQMNSLKPEDTAVYYCAAESSDPRAYDYWGQGTQVTVSS	low polyreactivity
QVQLVESGGGLVQAGGSLLLTCAASGRIISLYAMGWYRQAPGKERELVAGISGGTIKYYADSLKGRFTISRDNAKNTVYLQMNSLKAEDTAVYYCAAKPTYRGYGYGSWGHGTQVTVSS	low polyreactivity
QVQLVESRGCLVQAGGSLRLSCAASGSTFYPYAMGWYRQAPGKERELVAGITVIDGSTYYADSVKGRFTISRDNAKNTVYLQMNSLKPEDTAVYYCAFDAPNQVQEYGYWGQGTQVTVSS	low polyreactivity
QVQLVESGGGLVQAGGSLRLSCAASGRTFPYYDMGWYRQAPGKERELVAAITSGGTTNYADSVKGRFTISRDNAKNTVYLQMNSLKPEDTAVYYCAAGSPWYYFSSYGYWGQGTQVTVSS	low polyreactivity
QVHLVESGGGLVQAGGSLRLSSAASGFTFPWYAMGWYRQAPGKERELVATITRGGSTYYADSVKGRFTISRDNAKNTVYLQMNSLKPEDTAVYYCAVTYWRYHSYSPYDYWGQGTQVTVSS	high polyreactivity
QVQLVESGGGLVQAGGSLRLSCAASGIIFYSSAMGWYRTAPGKERELVAAISWGGRTYYADSVKGRFTISRDNAKNTVYLQMNSLKPEDTAVYYCLNGRYWRRYDYWGQGTQVTVSS	high polyreactivity
QVQLVESGGGLVQAGGSLRLSCAASGRIFPGNAMGWYRQAPGKERELVADITSGGSTNYADSVKGRFTISRDNAKNTVYLQMNSLKPEDTAVYYCAVRQIYQTSDHRLQYDYWGQGTQVTVSS	low polyreactivity
QVQLVESGGGLVQAGGSLRLSCAASGSIFVYYAMGWYRQAPGNERELVAAISKTGGRTYYADSVKGRFTISRDNAKNTVYLQMNSLKPEDSAVYYCAARYTIRYKRYDYWGQGTQVTVSS	high polyreactivity
QVQLVESGGGLVQAGGSLRLSCAASGRIFEFNAMGRYIQAPGKERELVARISYSGGSTYYADSLKGRFTISRDNAKNTVYLQMNSLKPEDTAVYYCAAKPSRYFYNAWGYRQVYQYDYWGQGTQVTVSS	high polyreactivity
QVQLVESGGGLVQAGGSLRLSCAASGLTFRRYAMGWYRQAPGKERELVAGISRGGSTYYADSVKGRFTISRDNAKNTVYLQMNRLKPEDTAVYYCAAYNSGTYPVQPVPYDMDYWGQGTQVTVSS	low polyreactivity
QVQLVESGGGLVQAGGSLRLTSAASGSIFRYYTMGWYRHAPRKERELVAAISRNGGSTYYADSVKGRFTISRDNAKNSVYLQMNSLKPVDTAVYYCNADGGDWFGYVGMDYWGQGTQVTVSS	high polyreactivity
QFHLVESGGGLVQAGGSLRLSCAASGRIFSEYAMGWYRQAHGKEMELVASISTSGGSTYYADSVKGRFTISRDNAKNTVYLQKYSLKPEDTEVYYCNVAYYRYPSYTYGYDHWGQGTQVTVSS	high polyreactivity
QVQLQESGGGLVQAGGSLRLSCAASGSISELRPMGWYRQAPGKERELVAGISTGGSTNYADSVKGRFTISRDNAKNTVYLQMNSLKPEDTAVYYCAAASYGEGTYDYWGQGTQVTVRS	high polyreactivity
QVQRVESGGGLVQAGGTLRLSCAASGRIFWYNAMGWSRQAPGKERELVAVISTRGGRTYYADSVKGRFTISRDNAKNTVYLQMNSLKPEDTAVYYCAAEFLNKAVGGVTSIYDSWGQGTQVTVSS	low polyreactivity
QVQLVESGGGLVQAGGSLRLSCAASGRTFTRYTMGWYRQAPGKERELVAAITRGGSTYADSVKGRFTISRDNAKNTVYLQMNSMKPEDTAVYYCAAYWGFYPWRAYPYDYWGQGTQVTVSS	high polyreactivity
QVQLVESGGGLVQAGGSLRLSCAASGFIFGWNAMGWYRQAPGKERELVATITRGSTYYADSVKGRFTISRDNAKNTVYLQMNSLKPEDTAVYYCNVVYYGRWANYDYWGQGTQVTVSS	low polyreactivity
